Each block holds one binder with its values, some of them ahead of it.
Biological target: T1, recombinant GST-YOD1 (UniProt Q5VVQ6 1-348)
T1 construct: YOD1 (OTUD2, DUBA8); A GST-YOD1 truncation product is seen in the blots (asterisk)
Assay: pull-down; GST-YOD1 (or GST) on Glutathione Sepharose 4B; candidate protein incubated 2 hr at 4°C in assay buffer with 0,5% Triton X100; Western blot or Coomassie
Conditions: both partners purified

binding result: binds
B1: HIS-TRAF6 MATH (346-504) (domain or fragment, UniProt Q9Y4K3 346-504, looked up)
chain: AQQCNGIYIWKIGNFGMHLKCQEEEKPVVIHSPGFYTGKPGYKLCMRLHLQLPTAQRCANYISLFVHTMQGEYDSHLPWPFQGTIRLTILDQSEAPVRQNHEEIMDAKPELLAFQRPTIPRNPKGFGYVTFMHLEALRQRTFIKDDTLLVRCEVSTRFD
notes: also called C-terminal HIS-TRAF6 MATH; TRAF6 MATH domain

binding result: binds
B2: HIS-TRAF6 CC-MATH (310-522) (domain or fragment, UniProt Q9Y4K3 310-522, looked up)
chain: DHQIRELTAKMETQSMYVSELKRTIRTLEDKVAEIEAQQCNGIYIWKIGNFGMHLKCQEEEKPVVIHSPGFYTGKPGYKLCMRLHLQLPTAQRCANYISLFVHTMQGEYDSHLPWPFQGTIRLTILDQSEAPVRQNHEEIMDAKPELLAFQRPTIPRNPKGFGYVTFMHLEALRQRTFIKDDTLLVRCEVSTRFDMGSLRREGFQPRSTDAGV
notes: TRAF6, coiled-coil and MATH domains, residues 310-522; also called HIS-TRAF6 310–522; TRAF6 C-terminus

From paper PMC5340530, “YOD1/TRAF6 association balances p62-dependent IL-1 signaling to NF-κB” (eLife, 2017)
